Data on 44 molecules can be found in patent US20180273595A1 (REGENTS OF THE UNIVERSITY OF MICHIGAN, published 2018).

*1 amine or outer side, *2 acyl side, *3 side chain or, on linkers, in order; H or OH if unused. Primed or numbered codes have the meaning given here. Where no end group is shown, it is not given here. [ ]: non-standard residue; d: D form. Y(Me) = COc1ccc(C[C@H](N[*:1])C(=O)[*:2])cc1; Pip′ = 4-methylpiperazine; βAla = NCCC(=O)O

T1: recombinant His-tagged full-length ERG (UniProt P11308 1-479, biotinylated with NHS-PEG4 biotin for the OctetRED assays)
T1 construct: mature; Baculovirus expression in SF9 cells, Ni-NTA purified; also called wild-type ERG; wtERG; not shown: His tag
T1 sequence (looked up): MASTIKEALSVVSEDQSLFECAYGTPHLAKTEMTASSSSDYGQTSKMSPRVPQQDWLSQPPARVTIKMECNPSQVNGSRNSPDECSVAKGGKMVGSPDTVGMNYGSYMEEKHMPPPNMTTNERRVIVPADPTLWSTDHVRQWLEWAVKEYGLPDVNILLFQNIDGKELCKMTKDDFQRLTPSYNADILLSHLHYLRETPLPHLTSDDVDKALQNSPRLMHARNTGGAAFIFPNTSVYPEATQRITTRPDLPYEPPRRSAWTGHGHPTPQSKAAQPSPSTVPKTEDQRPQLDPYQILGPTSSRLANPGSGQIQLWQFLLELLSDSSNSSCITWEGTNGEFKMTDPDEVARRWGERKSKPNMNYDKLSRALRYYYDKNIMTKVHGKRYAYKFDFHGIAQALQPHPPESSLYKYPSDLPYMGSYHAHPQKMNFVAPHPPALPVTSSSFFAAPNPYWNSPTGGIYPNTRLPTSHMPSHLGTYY

T2: TMPRSS2:ERG gene fusion product, endogenous in VCaP cells (UniProt P11308 33-479, limits assumed)
T2 construct: In cell lysates, in cells or in xenograft tumors; also called endogenous ERG; VCaP ERG
T2 sequence (looked up): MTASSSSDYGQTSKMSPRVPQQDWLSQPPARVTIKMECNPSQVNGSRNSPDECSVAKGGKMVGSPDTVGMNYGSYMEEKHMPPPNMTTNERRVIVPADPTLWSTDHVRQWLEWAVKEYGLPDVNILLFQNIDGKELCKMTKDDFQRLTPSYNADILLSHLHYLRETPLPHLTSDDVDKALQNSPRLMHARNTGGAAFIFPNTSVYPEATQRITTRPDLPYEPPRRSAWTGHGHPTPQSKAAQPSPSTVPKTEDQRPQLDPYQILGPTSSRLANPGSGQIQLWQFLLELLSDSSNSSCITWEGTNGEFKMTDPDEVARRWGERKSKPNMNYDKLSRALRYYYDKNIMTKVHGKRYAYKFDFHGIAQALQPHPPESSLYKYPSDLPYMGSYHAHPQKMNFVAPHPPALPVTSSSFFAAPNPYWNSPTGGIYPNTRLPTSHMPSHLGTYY

B1: 4PL-Pip2 (peptide)
peptide: [Pip′][βAla][βAla]PPYL-NH2
modifications: not fully specified
notes: also called Pip-βAβA-PPYL-NH2
B2: PPYE peptide (mutation of PPYL to PPYE) (peptide)
peptide: PPYE
modifications: not fully specified
B3: LPPYLFT with 4-methylpiperazine (Pip) added (peptide)
peptide: LPPYLFT
modifications: not fully specified (N-terminus)
notes: also called more soluble version of EIP1
B4: PPYL with 4-methylpiperazine (Pip) added (peptide)
peptide: [Pip′]PPYL
modifications: not fully specified
notes: also called more soluble version of 4PL-A
B5: EIP2 synthetic peptide LSFGSLP (peptide)
peptide: LSFGSLP
B6: synthetic peptide FTFGSLP (peptide)
peptide: FTFGSLP
B7: synthetic peptide LSFGTFP (peptide)
peptide: LSFGTFP
B8: synthetic peptide LSFGSFP (peptide)
peptide: LSFGSFP
B9: synthetic peptide LAFGSLP (peptide)
peptide: LAFGSLP
B10: synthetic peptide LTFGSLP (peptide)
peptide: LTFGSLP
B11: synthetic peptide FSFGSLP (peptide)
peptide: FSFGSLP
B12: EIP1 synthetic peptide LPPYLFT (peptide)
peptide: LPPYLFT
B13: synthetic peptide LRFGTLP (peptide)
peptide: LRFGTLP
B14: synthetic peptide FSASSPA (peptide)
peptide: FSASSPA
B15: synthetic peptide MTFGTLP (peptide)
peptide: MTFGTLP
B16: synthetic peptide YTFGTLP (peptide)
peptide: YTFGTLP
B17: 4PL-4A (peptide)
peptide: [Pip′]PPYA-NH2
notes: also called Pip-PPYA-NH2
B18: 4PL-4F (peptide)
peptide: [Pip′]PPYF-NH2
notes: also called Pip-PPYF-NH2
B19: 4PL-4D (peptide)
peptide: [Pip′]PPYD-NH2
notes: also called Pip-PPYD-NH2
B20: 4PL-3F (peptide)
peptide: [Pip′]PPFL-NH2
notes: also called Pip-PPFL-NH2
B21: 4PL-3Y(Me) (peptide)
peptide: [Pip′]PP[Y(Me)]L-NH2
notes: also called Pip-PPY(Me)L-NH2
B22: TAT-EIP1 cell-permeable peptide (peptide)
peptide: LPPYLFTGGRKKRRQRRRG
modifications: not fully specified
notes: also called FITC-labeled TAT-EIP1
B23: TAT-EIP2 cell-permeable peptide (peptide)
peptide: LSFGSLPGGRKKRRQRRRG
B24: muEIP2 synthetic peptide LSAGSAP (peptide)
peptide: LSAGSAP
notes: Alanine substitution control
B25: TAT-EIP1 with Y to A substitution (peptide)
peptide: LPPALFTGGRKKRRQRRRG
notes: also called Y→A
B26: TAT-EIP1 with P2 to A substitution (peptide)
peptide: LAPYLFTGGRKKRRQRRRG
notes: also called P^2→A
B27: 4PL-A (Ac-PPYL-NH2) (peptide)
peptide: Ac-PPYL-NH2
notes: also called capped 4-mer peptide PPYL
B28: 7-mer LPPYLFT capped at the N-terminus only (Ac-LPPYLFT) (peptide)
peptide: Ac-LPPYLFT-OH
notes: Variant inferred from the sentence on capping
B29: 4PL-N (peptide)
peptide: H-PPYL-NH2
notes: also called H2N-PPYL-NH2
B30: 5PT-N (NH2-PYLFT-NH2) (peptide)
peptide: H-PYLFT-NH2
B31: 5LL-A (peptide)
peptide: Ac-LPPYL-NH2
notes: also called Ac-LPPYL-NH2
B32: 5LL-N (peptide)
peptide: H-LPPYL-NH2
notes: also called H2N-LPPYL-NH2
B33: 5PF-N (peptide)
peptide: H-PPYLF-NH2
notes: also called H2N-PPYLF-NH2
B34: 5PF-A (peptide)
peptide: Ac-PPYLF-NH2
notes: also called Ac-PPYLF-NH2
B35: 6LF-A (peptide)
peptide: Ac-LPPYLF-NH2
notes: also called Ac-LPPYLF-NH2
B36: 6LF-N (peptide)
peptide: H-LPPYLF-NH2
notes: also called H2N-LPPYLF-NH2
B37: 6PT-N (peptide)
peptide: H-PPYLFT-NH2
notes: also called H2N-PPYLFT-NH2
B38: 6PT-A (peptide)
peptide: Ac-PPYLFT-NH2
notes: also called Ac-PPYLFT-NH2
B39: 5PT-A (peptide)
peptide: Ac-PYLFT-NH2
notes: also called Ac-PYLFT-NH2
B40: 7LT-4H (peptide)
peptide: Ac-LPPHLFT-NH2
notes: also called Ac-LPPHLFT-NH2
B41: 7LT-4F (peptide)
peptide: Ac-LPPFLFT-NH2
notes: also called Ac-LPPFLFT-NH2
B42: 7LT-4W (peptide)
peptide: Ac-LPPWLFT-NH2
notes: also called Ac-LPPWLFT-NH2
B43: 7LT-4D (peptide)
peptide: Ac-LPPDLFT-NH2
notes: also called Ac-LPPDLFT-NH2
B44: biotinylated muEIP2 peptide (peptide)
peptide: LSAGSAP
modifications: also: biotin, position not given here
notes: also called biotin-muEIP2; mutant EIP2 (muEIP2)

One test concerns the target T1, recombinant His-tagged full-length ERG. In words: Kd table of synthetic peptides on ERG; assay not given.
As for B1, the Kd turned out to be 3 µM. For B2, the binding result is “no binding”. As for B3, the equilibrium dissociation constant (Kd) was 1.7 µM. Take B4: the Kd worked out at 3.3 µM.

A further test has the same target. In words: OctetRED BLI, biotinylated ERG on streptavidin sensors.
Experimental: (§1) The interaction coefficients between ERG and synthetic peptides or peptidomimetics were determined by biolayer interferometry technology using the Octet Red system (ForteBio). Purified ERG and GUS proteins were biotinylated by EZLink NHS-PEG4 Biotinylation Kit (Thermo Scientific) following the manufacturer's protocol and any unincorporated biotin was removed from the reactions with Zeba 2 ml desalt columns (Thermo). Biotinylated proteins (500 μg/ml) were then incubated with super streptavidin biosensors in binding buffer (20 mM HEPES pH 7.4, 150 mM NaCl), blocked with 10 μg/ml biocytin and washed three times in binding buffer. Peptides were serially diluted in binding buffer, mixed with the protein-coupled biosensors and peptidomimetic:protein association/dissociation was monitored for 10 min at 25° C. Nonspecific binding from the signal obtained from peptidomimetic:GUS interactions was subtracted from that of peptidomimetic:ERG interactions and baseline signal drift was controlled by monitoring immobilized ERG without peptide. Octet Red analysis software was used to analyze the data.
Regarding B5, the Kd amounted to 1.8 µM. Turning to B6, the equilibrium dissociation constant (Kd) was 3.9 µM. The same measure, in the same setting: next, B7: 9.2 µM; B8: 12.5 µM. B9: the Kd was 6.4 µM. The same measure, in the same setting: to B10 belongs 2.9 µM; to B11, 2.1 µM.

Consider B12, for which the Kd amounted to 0.6 µM. On the same count and under the same terms, next, B13: 7.9 µM; B14: 21.1 µM.

Turning to B15, the Kd came to 4.6 µM. Still for that read-out and setting: to B16 belongs 3.2 µM.

Another test shares this target. In words: Kd table of synthetic peptides on ERG; assay not given. This is another data set of the same source.
For B17, the Kd was 7.9 µM.

Turning to B18, the binding result was “no binding”. Consider B19, for which the dissociation constant (Kd) is 14.8 µM. Take B20: the Kd came to 3.9 µM. The same measure, in the same setting: next, B21: 15.5 µM.

A further test shares this target. In words: OctetRED BLI.
Regarding B22, the Kd stood at 0.68 µM. The same measure, in the same setting: next, B23: 1.11 µM.

The next test shares this target. In words: OctetRED biolayer interferometry, biotinylated ERG on streptavidin sensors, peptide in solution.
Experimental: as §1
B24: the binding result was “no binding (tested: 20 µM)”.

Another test shares this target. In words: OctetRED BLI, alanine substitution peptides of TAT-EIP1.
As to B25, the “fold increase in Kd against parental TAT-EIP1” value was more than 100 fold. The same measure, in the same setting: next, B26: more than 100 fold.

The target is the same in the next test. In words: Kd table of synthetic peptides on ERG; assay not given. The source holds these as a separate data set.
On to B12, for which the Kd came to 2.8 µM. Turning to B27, the Kd came out at 1.4 µM. Same read-out and setting: to B28 belongs 2.8 µM; to B29, 94.2 µM.

The target is the same in the next test. In words: OctetRED; Kd table of synthetic peptides on ERG.
Experimental: as §1
On to B30, for which the equilibrium dissociation constant (Kd) was found to be 1.31 µM.

Turning to B31, the Kd came to 12.4 µM. Turning to B32, the Kd was determined as 9.6 µM. Still for that read-out and setting: next, B33: 10.2 µM. Still for that read-out and setting: to B34 belongs 9.44 µM; to B35, more than 100 µM. On the same count and under the same terms, next, B36: 4.88 µM; B37: 11.5 µM. Turning to B38, the Kd was found to be 3.64 µM.

Regarding B39, the Kd came to 5.15 µM.

For the molecule B29, the dissociation constant (Kd) is more than 100 µM.

For another test the target is unchanged. In words: Kd table of synthetic peptides on ERG; assay not given. This is another data set of the same source.
On to B12, for which the Kd is 0.972 µM. Same read-out and setting: next, B40: more than 100 µM; B41: more than 100 µM.

With B42, the Kd is more than 100 µM. Regarding B43, the Kd is more than 100 µM.

The target of a further test is T2, TMPRSS2:ERG gene fusion product, …. In words: pull-down of VCaP lysate with biotinylated peptide, ERG immunoblot.
Experimental: Approximately 1 mg of soluble VCaP cell lysate prepared in RIPA buffer (Invitrogen) was incubated with varying amounts of biotinylated peptides for 2 hours at 4° C. HaloLink agarose beads (20 μl) were added to the peptide-lysate mixture and incubated for an additional 4 hours. Beads were then pelleted by centrifugation, washed three times in PBS-T and loaded into an SDSPAGE gel followed by Western blot analysis. Total VCaP cell lysate was loaded for positive control.
As for B44, the binding result is recorded as “no binding (tested: 20 µM)”.
